Source: the supplement of paper PMC10724198
± gives the standard deviation of the averaged measurements.

tested on: Saccharomyces cerevisiae; assay: protein stability index of tFT-peptide fusion (C-terminal peptide) (PSI (0-1 scale)); higher = more stable (slower turnover); conditions: genetic background: wild type; temperature: 30 C
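Also: PSI is a weighted mean of sequencing reads over stability bins, variants kept only with over 10 reads, mCherry proximal and sfGFP distal, peptide attached via GGGS linker.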

Compared with NIKHTDKPNHIN, NIKKKINNTVKN is higher in protein stability index: 0.609 ± 0.011 for the first, 0.666 ± 0.0073 for the second.

Going from NIMSSFFLTFHR to NINYETNKQTDR, the protein stability index falls from 0.719 ± 0.017 to 0.668 ± 0.022.

NISSFKHVLAYK and NKIVKYSKIRYK are within error of each other in protein stability index: 0.624 ± 0.06 for the first, 0.678 ± 0.018 for the second.

NKKKKENTKKRK and NKKKKKKRKRVK are within error of each other in protein stability index: 0.721 ± 0.18 for the first, 0.701 ± 0.049 for the second.

NKKKKKKRNGAP and NKKKNKKKNKKK are within error of each other in protein stability index: 0.658 ± 0.028 for the first, 0.676 ± 0.032 for the second.

NKKKNLRYKHRI and NKNDINRMVQVS are within error of each other in protein stability index: 0.643 ± 0.1 for the first, 0.6754 ± 0.0062 for the second.

NKNNCKLISEKF and NKNNITKKRKKD are within error of each other in protein stability index: 0.721 ± 0.026 for the first, 0.749 ± 0.064 for the second.

NKNRKNQNKGKR and NKQKKKKSTKRN are within error of each other in protein stability index: 0.743 ± 0.069 for the first, 0.704 ± 0.029 for the second.

Compared with NKVISETKKLDN, NLAGLVREYSGY is higher in protein stability index: 0.64983 ± 0.00019 for the first, 0.684 ± 0.011 for the second.

NLGRGYLVFRGM and NLLPFLGPLPRS are within error of each other in protein stability index: 0.709 ± 0.062 for the first, 0.781 ± 0.067 for the second.

NLQKTRNRRTVE and NNANDKKNKRKK are within error of each other in protein stability index: 0.643 ± 0.011 for the first, 0.664 ± 0.044 for the second.

NNEETIKQKNLQ and NNRVVRGRKWGG are within error of each other in protein stability index: 0.702 ± 0.025 for the first, 0.682 ± 0.015 for the second.

NPFLHQSMGQLT and NPGLGLSCPSPP are within error of each other in protein stability index: 0.724 ± 0.078 for the first, 0.701 ± 0.043 for the second.

NQERYKKIRSKQ and NRAVTRKRKEEK are within error of each other in protein stability index: 0.714 ± 0.054 for the first, 0.664 ± 0.03 for the second.

NRGRIRARVNEA and NRGTRQIIIKKK are within error of each other in protein stability index: 0.708 ± 0.07 for the first, 0.653 ± 0.038 for the second.

Compared with NRLPGNLKKKDN, NRLRNAGEPTND is higher in protein stability index: 0.687 ± 0.019 for the first, 0.782 ± 0.069 for the second.

First: NRYKINHRIKCK
Second: NRYRILDKLRRK
The protein stability index of the first is lower: 0.576 ± 0.032 for the first, 0.6618 ± 0.0026 for the second.

Going from NSHRYDSNIPDS to NSLGRRRSYPTL, the protein stability index rises from 0.685 ± 0.057 to 0.839 ± 0.039.

NSLLSFLPDPFH and NSRASHPTNQII are within error of each other in protein stability index: 0.749 ± 0.0096 for the first, 0.789 ± 0.054 for the second.

NSSKHAWAWPVP and NSYVGSSTYVIV are within error of each other in protein stability index: 0.68 ± 0.029 for the first, 0.692 ± 0.033 for the second.

NTNNKKNSKHSN and NTQPSNRTQRKY are within error of each other in protein stability index: 0.661 ± 0.02 for the first, 0.669 ± 0.1 for the second.

NTTQKKKGGRKA and NVIGGGRSAGLV are within error of each other in protein stability index: 0.747 ± 0.15 for the first, 0.609 ± 0.053 for the second.

First: NVKIDNKQRKNK
Second: NVNAVAVILGAC
The protein stability index of the first is higher: 0.746 ± 0.019 for the first, 0.562 ± 0.0061 for the second.

NVRKWSREDQTG and NWARLGVRMGAA are within error of each other in protein stability index: 0.6679 ± 0.00079 for the first, 0.66 ± 0.013 for the second.

Compared with NWKNENGRELEE, NYLPLCCSMLAG is lower in protein stability index: 0.7 ± 0.029 for the first, 0.588 ± 0.015 for the second.

PAAIARNPLPHR and PAALPHTPSAPY are within error of each other in protein stability index: 0.605 ± 0.075 for the first, 0.666 ± 0.04 for the second.

PAASHPPRWPRR and PACFESCGLWGF are the same in protein stability index: 0.75 ± 0.049 for the first, 0.75 ± 0.039 for the second.

PACSFPPPPFSA and PACSPLLAARVT are within error of each other in protein stability index: 0.703 ± 0.1 for the first, 0.711 ± 0.061 for the second.

PADAPPPTRPEA and PAFVPPFTPATP are within error of each other in protein stability index: 0.724 ± 0.032 for the first, 0.76 ± 0.033 for the second.

Going from PAGLITRSWNLV to PALRTTRCLPLP, the protein stability index rises from 0.565 ± 0.028 to 0.703 ± 0.019.

PAPCPLFVPSPT and PAPLLPLSPPRP are within error of each other in protein stability index: 0.655 ± 0.012 for the first, 0.709 ± 0.042 for the second.

PAPLPADTFVEC and PAPLPPRPTSLP are within error of each other in protein stability index: 0.668 ± 0.065 for the first, 0.711 ± 0.011 for the second.

PAPPPPLLPRSL and PAPPPPPPPPLH are within error of each other in protein stability index: 0.727 ± 0.011 for the first, 0.701 ± 0.083 for the second.

First: PAPPPPPTDTPP
Second: PAPPPVLDTPLP
The protein stability index of the first is higher: 0.623 ± 0.0095 for the first, 0.6018 ± 0.0057 for the second.

Compared with PAPRPLSPPPTF, PARCRPSSPAPL is higher in protein stability index: 0.699 ± 0.0091 for the first, 0.726 ± 0.016 for the second.

First: PARLLIEFPSYS
Second: PARPIPFPQPCY
The protein stability index of the first is higher: 0.684 ± 0.021 for the first, 0.538 ± 0.032 for the second.

PARPLFAPSFFT and PASSAPLSLLPC are within error of each other in protein stability index: 0.699 ± 0.047 for the first, 0.655 ± 0.084 for the second.

Going from PASSSFVCAVSR to PATRHSRLPPAS, the protein stability index falls from 0.783 ± 0.091 to 0.67 ± 0.018.

PATRIDAFPPVP and PAVARPLGPPPY are within error of each other in protein stability index: 0.685 ± 0.022 for the first, 0.714 ± 0.045 for the second.

PAVRGEMYLGVG and PCAFSLPPLQIP are within error of each other in protein stability index: 0.685 ± 0.014 for the first, 0.7 ± 0.012 for the second.

First: PCGGGGRECVRG
Second: PCLPPPLRLPPN
The protein stability index of the first is higher: 0.808 ± 0.1 for the first, 0.631 ± 0.054 for the second.

Compared with PCLVLSLYSDLP, PCPPAPPRFLLR is higher in protein stability index: 0.68 ± 0.032 for the first, 0.732 ± 0.016 for the second.

PCPPRSLPPPTS and PCSSFPTFPRRL are within error of each other in protein stability index: 0.835 ± 0.16 for the first, 0.715 ± 0.017 for the second.

Going from PCVCLRWTGKAF to PCVPSRTISLPE, the protein stability index rises from 0.532 ± 0.031 to 0.684 ± 0.031.

PDGGFSSVVSLR and PDRQNLSRPEKD are within error of each other in protein stability index: 0.686 ± 0.076 for the first, 0.702 ± 0.0092 for the second.

PDRSLASPPTTR and PDSLCLSPPSLP are within error of each other in protein stability index: 0.711 ± 0.069 for the first, 0.686 ± 0.017 for the second.

PDTCRYTAFHFH and PDVFLLHASPPG are within error of each other in protein stability index: 0.586 ± 0.02 for the first, 0.66 ± 0.098 for the second.

PEKRDIQSGIVD and PFALADSDGDSK are within error of each other in protein stability index: 0.696 ± 0.024 for the first, 0.683 ± 0.059 for the second.

PFFLSFPPSALL and PFFRAPTRPSVF are within error of each other in protein stability index: 0.741 ± 0.021 for the first, 0.716 ± 0.043 for the second.

PFLSLPLSPPPP and PFPLPPPPSPTP are within error of each other in protein stability index: 0.71 ± 0.092 for the first, 0.699 ± 0.03 for the second.

PFPPLPLPLPLP and PFPRPWRPLPTS are within error of each other in protein stability index: 0.7123 ± 0.00013 for the first, 0.7 ± 0.044 for the second.

PFPSPSPLARLP and PFSLSLPPPPLP are within error of each other in protein stability index: 0.704 ± 0.054 for the first, 0.73 ± 0.026 for the second.

PFSPLPGPPPPP and PFSPPPSTQPSY are within error of each other in protein stability index: 0.733 ± 0.04 for the first, 0.754 ± 0.15 for the second.

First: PFSSPPPPCRSC
Second: PFSSVFNPGVLS
The protein stability index of the first is higher: 0.718 ± 0.023 for the first, 0.644 ± 0.017 for the second.

PFSVCVSSSLCG and PFTHRTYREGRT are within error of each other in protein stability index: 0.665 ± 0.0076 for the first, 0.676 ± 0.081 for the second.

First: PFVIFHSCFSLV
Second: PGALLPALPPPP
The protein stability index of the first is lower: 0.543 ± 0.011 for the first, 0.71 ± 0.016 for the second.

PGFTLLDFCLYH and PGFVGPWAGGGA are within error of each other in protein stability index: 0.725 ± 0.0091 for the first, 0.735 ± 0.12 for the second.

PGGAGKAYGSRL and PGGLVVGAGRED are within error of each other in protein stability index: 0.707 ± 0.012 for the first, 0.709 ± 0.033 for the second.

Going from PGIAVPTGTSYV to PGIVTGCGNTFV, the protein stability index rises from 0.617 ± 0.06 to 0.708 ± 0.022.

PGNKHYRARNGA and PGPKAAHSKRDR are within error of each other in protein stability index: 0.678 ± 0.013 for the first, 0.662 ± 0.058 for the second.

PGPPFPMANTPF and PGRVAGGCGVLG are within error of each other in protein stability index: 0.646 ± 0.048 for the first, 0.64419 ± 0.00049 for the second.

PGRYTDCCLPNR and PGSLRGATRPNQ are within error of each other in protein stability index: 0.682 ± 0.022 for the first, 0.739 ± 0.17 for the second.

PGTVQVGFDIQV and PGWHLDPITALP are within error of each other in protein stability index: 0.717 ± 0.018 for the first, 0.712 ± 0.027 for the second.

PHAEESNSTLSP and PHLAPPPGPLHP are within error of each other in protein stability index: 0.765 ± 0.12 for the first, 0.7233 ± 0.0024 for the second.

PHLEVPARPRGT and PHLPSPRPRPPP are within error of each other in protein stability index: 0.7148 ± 0.0042 for the first, 0.722 ± 0.012 for the second.

PHMRSPTPLLRP and PHNPTFSPPTCP are within error of each other in protein stability index: 0.697 ± 0.077 for the first, 0.751 ± 0.027 for the second.

PHPAPRRPPLPP and PHPRHQPNLRPT are within error of each other in protein stability index: 0.687 ± 0.05 for the first, 0.664 ± 0.024 for the second.

PHPRPPPLSFAP and PHPSPRGTPCPT are within error of each other in protein stability index: 0.681 ± 0.035 for the first, 0.646 ± 0.021 for the second.

PHRPSPPIPLSV and PHRSRPPPTPPV are within error of each other in protein stability index: 0.662 ± 0.043 for the first, 0.625 ± 0.061 for the second.

Going from PHSSSLSPCPSL to PHTHPPASLPPV, the protein stability index falls from 0.687 ± 0.013 to 0.638 ± 0.033.

PHWGKRINEAHT and PHYPQSHPADPV are within error of each other in protein stability index: 0.6851 ± 0.0029 for the first, 0.668 ± 0.016 for the second.

First: PIATTSVDAGRS
Second: PICCPLILTRSL
The protein stability index of the first is lower: 0.634 ± 0.019 for the first, 0.706 ± 0.019 for the second.

PIHCTVMGATTC and PIPPLPSSRLGV are within error of each other in protein stability index: 0.657 ± 0.073 for the first, 0.602 ± 0.037 for the second.

Compared with PIPRAASPLLPM, PISAGGGVVWVE is higher in protein stability index: 0.588 ± 0.007 for the first, 0.6491 ± 0.0047 for the second.

PITSPPQVLLQH and PKTKKEKQKKKV are within error of each other in protein stability index: 0.686 ± 0.033 for the first, 0.704 ± 0.034 for the second.

PLCVFHYSSDDY and PLESRPHNAHQR are within error of each other in protein stability index: 0.705 ± 0.054 for the first, 0.663 ± 0.09 for the second.

PLFAPLTPPLPP and PLFLHSAHVSPI are within error of each other in protein stability index: 0.734 ± 0.033 for the first, 0.712 ± 0.071 for the second.

PLFPPASVVVLY and PLFSASLFSLSL are within error of each other in protein stability index: 0.663 ± 0.036 for the first, 0.747 ± 0.068 for the second.

Compared with PLFSPPFLPFSL, PLGQVLRVSSDF is higher in protein stability index: 0.711 ± 0.028 for the first, 0.75473 ± 0.00037 for the second.

PLGVGLVDGEAP and PLHPPPPPPPHP are within error of each other in protein stability index: 0.715 ± 0.072 for the first, 0.717 ± 0.064 for the second.
